Consider six molecules from patent US20230340555A1, “PRODUCTION OF GLYCOSYLATED CANNABINOIDS” (WILLOW BIOSCIENCES, INC., priority 2020, published 2023).

For this assay, the system named is CN3 yeast strain host cells. As to the kind of experiment: Detection of glycosylated cannabinoids and cannabinoid precursors in yeast cells expressing UDP-glycosyl transferase (HPLC-MS). Format: cell-based. Further details: key to CBDA-glc / OLA-glc / CBGA-glc / CBGA-(glc)2 / CBD-glc / CBD-(glc)2 / OLA-(glc)2 / CBGA-glucuronic acid: (+) represents the lowest detected quantities; (++), (+++), and (++++) signify relative increasing intermediate detected levels; (++), (+++), and (++++) signify relative increasing intermediate detected levels; (++), (+++), and (++++) signify relative increasing intermediate detected levels; (+++++) represents the highest detected quantities; No detectable levels of a glycosylated cannabinoid compound or glycosylated cannabinoid precursor compound are indicated by “n.d.”. Conditions: for production of glycosylated cannabinoids or cannabinoid precursor compounds: pellet or supernatant of recombinant yeast host cells transformed with the UGT; for OLA-glc: 20 h growth. The source says: CN3 yeast strain host cells were transformed as described in Example 1 with one of the following heterologous UGT genes: (1) AtUGT73C6, (2) AtUGT73B4, (3) AtUGT71 D1, (4) AtUGT76E12, (5) AtUGT88A1, (6) HaUGT76G1-L, (7) At5g49690, (8) AtUGT76C4, (9) CsUGT73C6, (10) SrUGT76C1, (11) AtUGT85A3, (12) AtUGT73B1, (13) Atg65550, (14) AtUGT76B1, (15) ATUGT76B1, (16) CsUGT75B2, (17) CsUGT73B4, (18) CsUGT73B1, (19) CsUGT75D1-DN11028, and (20) CsUGT71D1-DN48028. The transformed host cells were pre-grown overnight in yeast extract peptone dextrose (YPD) growth medium and then back diluted into yeast extract peptone galactose (YPG) to OD600 = 0.2. […] Strains were incubated for 20 h at 28° C. rotating at 600 RPM in an EPOCH|2 microplate reader (BioTek). Subsequently, samples were treated with an extraction solvent (80 % Acetonitrile, 20 % Methanol) for 1 hour rotating at 100 RPM. After 20 minutes centrifugation at 12,000 RPM, the supernatant was filtered with a basix 13 mm syringe filter (0.22 µm pore size, Nylon membrane) and transferred to a new tube for further analysis.
Glycosylated cannabinoid compounds and glycosylated cannabinoid precursor compounds were assayed in the supernatant and the cellular pellet employing HPLC and HPLC-MS analysis. HPLC and HPLC-MS analysis was carried out as described below to detect the following glycosylated cannabinoid and cannabinoid precursor compounds: CBGA monoglucoside, CBGA diglucoside, CBDA monoglucoside, CBDA diglucoside, CBGA glucuronic acid, CBD monoglucoside, CBD diglucoside, olivetolic acid monoglucoside (“OliAcid monoglucoside”), olivetolic acid diglucoside (“OliAcid diglucoside”).
HPLC analysis was carried out on an Agilent Technologies 1290 Infinity system, consisting of a vacuum degasser, a binary pump, a thermostated autosampler, a thermostated column compartment and a diode array detector (DAD). A Zorbax Eclipse Plus EC-18 column (2.1 × 50 mm, 1.8 µm, Agilent, USA) was used with a mobile phase composed of 0.1% formic acid in both (A) water with 0.2 % Formic Acid and (B) Acetonitrile with 0.2 % Formic Acid. The chromatographic conditions were set as follows: 0.0-8.0 min linear gradient from 5 to 95% B; 8.1-9.09 min […], 9.10-11.0 min 5 to 95% A for equilibration of the column with the initial conditions. The flow rate was set at 0.4 ml/min. The column temperature was set at 40° C. The sample injection volume was 5 µL. The UV/DAD acquisitions were carried out in the range 190-400 nm and chromatograms were acquired at 265 and 350 nm.
HPLC-MS analysis was carried out to confirm the identity of the HPLC peaks using an Agilent Technologies 6530 Accurate-Mass quadrupole time of flight (QToF) mass spectrometer operating in negative ionization (ESI -) mode. The mass spectrometer experimental parameters were set as follows: the capillary voltage was 3.5 kV, the nebulizer (N2) pressure was 35 psi, the drying gas temperature was 350° C., the drying gas flow was 11 L/min and the skimmer voltage was 65 V. Data were acquired by Agilent Mass Hunter software. The mass spectrometer was operated in full-scan mode in the m/z range 50-1100. Extracted ion chromatograms (EICs) were obtained with an accuracy of 10 ppm m/z from total ion chromatogram (TIC) employing the m/z corresponding to the molecular ions [M-H]^- 385.1504 for Olivetolic Acid Mono-Glucoside, 547.2032 for Olivetolic Acid di-Glucoside, 521.2756 for CBGA Mono-Glucoside, 683.3284 for CBGA Di-Glucoside, 535.2549 for CBGA Glucuronic Acid, 519.2600 for CBDA Mono-Glucoside, 475.2701 for CBD Mono-Glucoside, 637.3302 for CBD Di-Glucoside.
The glycosylated cannabinoid compounds and glycosylated cannabinoid precursor compounds were detected in a relative and semi-quantitative fashion. […]

B1: AtUGT85A3: UDP-glycosyl transferase from Arabidopsis thaliana, amino acid sequence SEQ ID NO: 22 (protein, listed as Arabidopsis thaliana)
chain: MGSRFVSNEQKPHVVCVPYPAQGHINPMMKVAKLLHVKGFHVTFVNTVYNHNRLLRSRGANALDGLPSFQFESIPDGLPETGVDATQDIPALSESTTKNCLVPFKKLLQRIVTREDVPPVSCIVSDGSMSFTLDVAEELGVPEIHFWTTSACGFMAYLHFYLFIEKGLCPVKDASCLTKEYLDTVIDWIPSMNNVKLKDIPSFIRTTNPNDIMLNFVVREACRTKRASAIILNTFDDLEHDIIQSMQSILPPVYPIGPLHLLVNREIEEDSEIGRMGSNLWKEETECLGWLNTKSRNSVVYVNFGSITIMTTAQLLEFAWGLAATGKEFLWVMRPDSVAGEEAVIPKEFLAETADRRMLTSWCPQEKVLSHPAVGGFLTHCGWNSTLESLSCGVPMVCWPFFAEQQTNCKFSCDEWEVGIEIGGDVKRGEVEAVVRELMDGEKGKKMREKAVEWRRLAEKATKLPCGSSVINFETIVNKVLLGKIPNT
B1: the “production of glycosylated cannabinoids or cannabinoid precursor compounds” value (“production” for short) is recorded as “No production”.

B2: At5g65550: UDP-glycosyl transferase from Arabidopsis thaliana, amino acid sequence SEQ ID NO: 26 (protein, listed as Arabidopsis thaliana)
chain: MAEPKPKLHVAVFPWLALGHMIPYLQLSKLIARKGHTVSFISTARNISRLPNISSDLSVNFVSLPLSQTVDHLPENAEATTDVPETHIAYLKKAFDGLSEAFTEFLEASKPNWIVYDILHHWVPPIAEKLGVRRAIFCTFNAASIIIIGGPASVMIQGHDPRKTAEDLIVPPPWVPFETNIVYRLFEAKRIMEYPTAGVTGVELNDNCRLGLAYVGSEVIVIRSCMELEPEWIQLLSKLQGKPVIPIGLLPATPMDDADDEGTWLDIREWLDRHQAKSVVYVALGTEVTISNEEIQGLAHGLELCRLPFFWTLRKRTRASMLLPDGFKERVKERGVIWTEWVPQTKILSHGSVGGFVTHCGWGSAVEGLSFGVPLIMFPCNLDQPLVARLLSGMNIGLEIPRNERDGLFTSASVAETIRHVVVEEEGKIYRNNAASQQKKIFGNKRLQDQYADGFIEFLENPIAGV
Take B2: the “production” value is “No production”.

B3: AtUGT73B1: UDP-glycosyl transferase from Arabidopsis thaliana, amino acid sequence SEQ ID NO: 24 (protein, listed as Arabidopsis thaliana)
chain: MGVFGSNESSSMSIVMYPWLAFGHMTPFLHLSNKLAEKGHKIVFLLPKKALNQLEPLNLYPNLITFHTISIPQVKGLPPGAETNSDVPFFLTHLLAVAMDQTRPEVETIFRTIKPDLVFYDSAHWIPEIAKPIGAKTVCFNIVSAASIALSLVPSAEREVIDGKEMSGEELAKTPLGYPSSKVVLRPHEAKSLSFVWRKHEAIGSFFDGKVTAMRNCDAIAIRTCRETEGKFCDYISRQYSKPVYLTGPVLPGSQPNQPSLDPQWAEWLAKFNHGSVVFCAFGSQPVVNKIDQFQELCLGLESTGFPFLVAIKPPSGVSTVEEALPEGFKERVQGRGVVFGGWIQQPLVLNHPSVGCFVSHCGFGSMWESLMSDCQIVLVPQHGEQILNARLMTEEMEVAVEVEREKKGWFSRQSLENAVKSVMEEGSEIGEKVRKNHDKWRCVLTDSGFSDGYIDKFEQNLIELVKS
With B3, the “production” value was “No production”.

B4: CsUGT71 D1-DN48028: UDP-glycosyl transferase from Cannabis sativa, amino acid sequence SEQ ID NO: 40 (protein, listed as Cannabis sativa)
chain: MARVELVFIPAPAIGHLVSTLEFAKRLIHYDHRLFITVLCEFSLKSHLDAYIDSLVASLSLAHRIKLVHLPLVDSPPVELLKSIENFIYQYMESLVPHVRKALTDIVSSNSNYSQGDVVLVLDFFCMPMMDVANELGLPSYMFMTSNLGLLSLMFYLATRHNQISSELEESDAPLRLQGFQNPVPSSVLPTAAFCKDGGYSAYVKLAQRFRETKGIIVNSFEELESYSFSSMNDGAETPPIYMVGPVLDLNGQPHPSMDQVQNDKILKWLDEQPHSSVVFLCFGSMGKFGASQLREIASGLQRSGHRFLWSVRVQQPTTIDEILPEGFLEQIGSKGMICNEWAPQVKILAHSAVGGFLSHCGWNSILESLWYGVPVATWPIYAEQQLNAFRMVREFGLAVDLRLDYKDRGDDHIVSAEEIETAVKHLMEGDKEVRKKVKEMSETARKSVEEGGSSFTAIGKLINSIIGSNYY
For B4, the “production” value is listed as “No production”.

B5: CsUGT73C6: UDP-glycosyl transferase from Cannabis sativa, amino acid sequence SEQ ID NO: 16 (protein, listed as Cannabis sativa)
chain: MASEPYKLHLIVIPFMAPGHFIPMADMARKLAEHGAMITLITLPVIAARIRPIIEQATENSNLKIQLVQVSLPLHEFGLPEGCDTVDLVPSRNLLLSFFIALDELQQPIEQVVSELKPRPSCIIADKHLPWTAEIATKFGIPRVLFDGMSCFSLLCNHMIRKSQVHLSVPMSVPFVVPGMPDHLEFTRNQLAADLYPNLEFGQKFHDRIRESEEGADGFLVNSFEELEWKYVEGYRKEKVGKAWCIGPVSLFNKTKLEVAQRGNNPAGAVDEKQCTEWLDSWPKSCVVYACLGSVSRLLIPQMIELGVALEASNKPFIWVIRGYDQEEEIEKWISESGFKERTKSRALLIFGWAPQVLILSHSSVGGFLTHCGWNSTLEGITYGKPMITWPMFAEQFYNQKLIVQVLKVGESVGPKFVVPYGREEEFGVFVLSKDILEAIEKVMAQDKEGEERRERVKRLSDMAQKAIEEGGSSYLDMKLFIEDIRNLHIS
Turning to B5, the “production” value is “detectable”. Further, the OLA-glc result (detected in PELLET, 0.05 mM hexanoic acid) is recorded as “++”. In addition, the OLA-glc result (detected in SUPERNATANT, 0.2 mM hexanoic acid) was “++”.

B6: CsUGT75D1-DN11028: UDP-glycosyl transferase from Cannabis sativa, amino acid sequence SEQ ID NO: 38 (protein, listed as Cannabis sativa)
chain: MKRTLLFIPSPGIGHLVSMLEFAKRLIQYDDRLFITILSMKFPNHDAYINSLVPSLSQSRVKLAHLPQVDPPPPKLLNSPESYIYVYVESLVPHVRDALKHIVPSHSNSETTHSQGCFVMVLDFFCMPMMDVANELGLPSYMFMPSNIGFLSSMLYLATRHDQISSELKESNPDEYSLKSFHNPVPWSALPQAYFCKDGGYSACVKMAQRFRETKGIIVNSFEGLEAHGATSFNDGETPPIYMVGPVVNFKGQPHSSTDHVQNNRIFKWLDEQPQSSVVFLCFASLGTFDASQLREIASGLECSGHRFLWCIRVQQPTIIDEILPEGFLERIGSKGMICNEWTPQVEVLAHNAVGGFVSHCGWNSILESLWYGVPIVTWPVYAEQQLNAFQMVREFDLAIELRLDYRNRGHNQLVTAEEIGNAIKKLMEGDHNVVMRKKGASGISSMVLSRFYTCKENVVLRQDPRWFAIKAGGEEK
With B6, the “production” value is listed as “No production”.
